According to patent US7563583B2, “Heregulin variants” (Genentech, Inc., priority 1997, dated 2009):

Columns and labels:
ErbB-3-Ig [1] = target: T1, ErbB-3-Ig (Homo sapiens, UniProt P21860); experiment: Phage ELISA of phage-displayed HRG-β1 variants, binding to ErbB-3-Ig
T1 construct: expressed the extracellular domain (ECD) of the ErbB-2, ErbB-3, or ErbB-4 receptor fused to a human IgG constant domain; made in house; host or cells: HEK-293 cells, secreted, Protein A purified
Protocol: To produce phage displaying the domains, mutagenesis reaction mixtures were electrotransformed into XL1-Blue™ cells (Stratagene, Inc., La Jolla, Calif.), according to the manufacturer's protocol. The transformed cells were then infected with 10^14 plaque-forming units (pfu) M13K07 helper phage (Promega Corp., Madison, Wis.). Phage stocks (about 10^14 phagemid/mL) were prepared by precipitating culture broths from the cells after 18-24 hours (h) of growth with 20% PEG(2000)/2.5 M NaCl, according to the method of Sambrook and Maniatis, Molecular Cloning a Laboratory Manual Cold Spring Harbor Press 429 (1989). […]
Serial dilutions of soluble ErbB-2/3-Ig (competitor) and a concentration of phage predetermined to give 60% saturation (without competitor) were added to the wells in 100 μL binding buffer. […] The amount of phage binding was determined by assaying horseradish peroxidase activity using o-phenylenediamine dihydrochloride) substrate solution (Sigma Chemical Company, St. Louis, Mo.). EC50 values were calculated as the concentration of soluble ErbB-2/3-Ig required to compete half of the phage off the plate.
Alanine-substituted variants were generated by site-directed mutagenesis according to Kunkel et al., Methods Enzymol. […] The affinities of the alanine-substituted variants for ErbB-3-Ig and ErbB-4-Ig was determined by phage ELISA as described in Example 1. […]

ErbB-2/3-Ig = experiment: Inhibition of 125I-HRG binding by soluble HRG-β1 EGF variants; details: ErbB-2/3-Ig versus ErbB-3-Ig homodimer
Protocol: The affinities of the soluble variants for ErbB-Ig were determined by measuring inhibition of ^125I-HRG binding to ErbB-2/3, -3 and -4 receptor-Ig fusions, as previously described in Example 1.

[2] = tested on: ErbB-3 or ErbB-4 receptors; experiment: Alanine scan of the HRG-β1 EGF-like domain by phage ELISA (FIG. 2); format: binding; details: ratio of variant EC50 to wild-type EC50
Protocol: The X axis lists each amino acid that was changed to alanine and its position. […] The EC50 was calculated as the concentration of soluble receptor fusion required to displace 50% of the total amount of phage bound to immobilized receptor fusion. ErbB-3 binding results are shown with black bars, and ErbB-4 binding results are shown with white bars.
Alanine-substituted variants were generated by site-directed mutagenesis according to Kunkel et al., Methods Enzymol. 154:367-82 (1987) (hereinafter “Kunkel mutagenesis”), using uracil-containing single-stranded DNA template prepared from pHRG2-g3. pHRG2-g3, which is described in Example 1, expressed HRG-β1 177-244 fused to pIII 247. A series of oligonucleotides was used to generate a series of constructs that expressed a series of variants in which consecutive residues were mutated to alanine. Phage stocks were prepared from these constructs as described in Example 1, except that PEG(8000) was used to precipitate the phage. The affinities of the alanine-substituted variants for ErbB-3-Ig and ErbB-4-Ig was determined by phage ELISA as described in Example 1.

ErbB-4-Ig = target: T2, ErbB-4-Ig (Homo sapiens, UniProt Q15303); experiment: Inhibition of 125I-HRG-β1 177-244 binding by soluble Trx-variant fusions; details: soluble thioredoxin (Trx)-variant fusions; HRG-β1 = recombinant HRG-β1 177-244
T2 construct: expressed the extracellular domain (ECD) of the ErbB-2, ErbB-3, or ErbB-4 receptor fused to a human IgG constant domain; made in house; host or cells: HEK-293 cells, secreted, Protein A purified
T2 sequence (Q15303 with tags, fused parts or gaps): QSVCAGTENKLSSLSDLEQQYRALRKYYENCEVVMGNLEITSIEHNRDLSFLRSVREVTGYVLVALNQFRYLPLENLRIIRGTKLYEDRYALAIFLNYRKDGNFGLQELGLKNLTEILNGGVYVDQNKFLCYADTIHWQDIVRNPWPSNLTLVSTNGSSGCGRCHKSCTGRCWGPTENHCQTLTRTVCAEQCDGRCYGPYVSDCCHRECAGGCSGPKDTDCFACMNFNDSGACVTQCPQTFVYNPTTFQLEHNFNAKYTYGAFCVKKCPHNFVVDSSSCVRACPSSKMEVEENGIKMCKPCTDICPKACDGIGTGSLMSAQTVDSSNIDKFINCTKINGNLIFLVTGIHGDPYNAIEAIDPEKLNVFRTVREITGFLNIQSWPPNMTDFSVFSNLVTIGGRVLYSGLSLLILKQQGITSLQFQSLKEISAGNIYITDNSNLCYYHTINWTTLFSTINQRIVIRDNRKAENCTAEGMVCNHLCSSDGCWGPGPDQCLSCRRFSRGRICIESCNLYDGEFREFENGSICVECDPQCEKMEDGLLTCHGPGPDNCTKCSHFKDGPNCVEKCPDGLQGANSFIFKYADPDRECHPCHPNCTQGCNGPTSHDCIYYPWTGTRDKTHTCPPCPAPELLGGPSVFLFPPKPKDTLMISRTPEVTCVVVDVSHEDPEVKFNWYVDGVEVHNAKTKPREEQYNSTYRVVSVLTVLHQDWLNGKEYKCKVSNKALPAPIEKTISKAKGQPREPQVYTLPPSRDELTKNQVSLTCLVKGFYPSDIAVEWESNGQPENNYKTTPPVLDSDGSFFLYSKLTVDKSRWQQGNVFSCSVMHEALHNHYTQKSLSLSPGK
Protocol: (§1) The affinities of the Trx-variant fusions for ErbB receptor-Ig fusions were determined by measuring inhibition of ^125I-HRG-β1 177-244 binding to ErbB-3-Ig and ErbB-4-Ig. Receptor fusions were coated on plates (Nunc Maxisorp C™ break-apart strip wells, Inter Med, Denmark) via anti-human IgG, as described in Example 1 for phage ELISA. Binding assays were carried out with a constant amount of ^125I-HRG-β1 177-244 (100-300 pM) and varying concentrations (100 pM-4 μM) of unlabeled Trx-variant fusion. Following incubation for 1-3 h at room temperature, plates were washed, and the amount of bound ^125I-HRG-β1 177-244 in each well was counted on a gamma counter (Isodata, ICN Biomedic Systems, Huntsville, Ala.). For the ErbB-3 binding assays, the blocking buffer was TBST (0.025 M Tris-HCl [pH 7.5], 0.15 M NaCl, 0.02% Tween 20™) containing 1% BSA; the binding buffer was RPMI 1640™ cell culture media (Gibco-BRL, Gaithersburg, Md.) containing 2 mM glutamine, 100 U/mL penicillin, 100 μg/mL streptomycin, 10 mM HEPES buffer (pH 7.2), 0.2% BSA; and the wash buffer was TBST. For the ErbB-4 binding assays, PBS containing 1% BSA was used as the blocking and binding buffers, and the wash buffer was PBS containing 0.05% Tween 20™.

ErbB-3-Ig [3] = target: T1, ErbB-3-Ig; experiment: as above; details: soluble thioredoxin (Trx)-variant fusions; HRG-β1 = recombinant HRG-β1 177-244
Protocol: as §1

T1 sequence (P21860 with tags, fused parts or gaps): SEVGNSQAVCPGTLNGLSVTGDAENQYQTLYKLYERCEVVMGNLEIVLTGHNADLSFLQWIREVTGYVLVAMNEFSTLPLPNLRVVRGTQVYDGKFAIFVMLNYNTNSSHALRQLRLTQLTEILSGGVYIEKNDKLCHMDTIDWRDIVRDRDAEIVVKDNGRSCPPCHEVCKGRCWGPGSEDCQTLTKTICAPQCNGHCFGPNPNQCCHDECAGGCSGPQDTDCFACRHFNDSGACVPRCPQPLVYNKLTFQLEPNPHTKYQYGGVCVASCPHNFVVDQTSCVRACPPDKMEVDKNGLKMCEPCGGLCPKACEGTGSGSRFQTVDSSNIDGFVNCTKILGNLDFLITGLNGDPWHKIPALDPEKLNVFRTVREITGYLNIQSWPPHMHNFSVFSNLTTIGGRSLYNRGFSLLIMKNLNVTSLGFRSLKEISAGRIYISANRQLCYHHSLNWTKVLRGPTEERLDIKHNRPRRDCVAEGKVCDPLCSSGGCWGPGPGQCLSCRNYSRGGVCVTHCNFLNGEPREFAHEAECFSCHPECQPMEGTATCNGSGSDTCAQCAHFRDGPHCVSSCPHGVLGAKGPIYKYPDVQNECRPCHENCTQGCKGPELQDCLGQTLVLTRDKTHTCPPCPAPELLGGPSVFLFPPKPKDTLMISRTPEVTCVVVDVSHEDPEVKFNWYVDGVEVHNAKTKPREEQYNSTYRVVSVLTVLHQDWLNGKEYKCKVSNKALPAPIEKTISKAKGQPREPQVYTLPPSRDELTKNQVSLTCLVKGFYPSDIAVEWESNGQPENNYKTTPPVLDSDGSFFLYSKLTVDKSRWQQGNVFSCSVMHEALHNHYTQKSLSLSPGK

B10: HRG-β1 EGF library B variant: A183D, E184K, K185S, E186R, K187E, T188G, M226I (SHLVKCDKSREGFCVNGGECFMVKDLSNPSRYLCKCPNEFTGDRCQNYVIAS; left off: large carriers; small tags and cut ends) [Variant B10]
increase in ErbB-3 receptor (ErbB-3-Ig) affinity over wild-type HRG-β1 EGF (ErbB-3-Ig [1]; phage ELISA): up to 26 fold

B1: HRG8: wild-type HRG-β1 177-228 (minimal EGF-like domain); on phage linked via (GGGS)3 to pIII 323, or soluble (protein)
chain: SHLVKCAEKEKTFCVNGGECFMVKDLSNPSRYLCKCPNEFTGDRCQNYVMASGGGSGGGSGGGSNSQMAQVGDGDNSPLMNNFRQYLPSLPQSVECRPFVFSAGKPYEFSIDCDKINLFRGVFAFLLYVATFMYVFSTFANILRNKES
higher affinity for the 2/3-heterodimer versus the 3/3 homodimer (ErbB-2/3-Ig): approximately 100 fold

B2: HRG63: HRG-β1 EGF control variant in which HRG-β1 202-204 of HRG8 are deleted (protein)
chain: SHLVKCAEKEKTFCVNGGECFMVKDPSRYLCKCPNEFTGDRCQNYVMASGGGSGGGSGGGSNSQMAQVGDGDNSPLMNNFRQYLPSLPQSVECRPFVFSAGKPYEFSIDCDKINLFRGVFAFLLYVATFMYVFSTFANILRNKES
Phage ErbB-3 EC50 (wt)/EC50 (mut) (ErbB-3-Ig [1]; relative to wild-type HRG-β1 EGF-phage in the same assay run, above 1 = higher affinity, ± SD of 2-4 duplicate runs): 1.1 ± 0.8

B3: E184: HRG-β1 variant with E184 mutated to alanine (protein, UniProt Q02297 1-640, looked up, variant E184A)
chain: MSERKEGRGKGKGKKKERGSGKKPESAAGSQSPALPPRLKEMKSQESAAGSKLVLRCETSSEYSSLRFKWFKNGNELNRKNKPQNIKIQKKPGKSELRINKASLADSGEYMCKVISKLGNDSASANITIVESNEIITGMPASTEGAYVSSESPIRISVSTEGANTSSSTSTSTTGTSHLVKCAAKEKTFCVNGGECFMVKDLSNPSRYLCKCQPGFTGARCTENVPMKVQNQEKAEELYQKRVLTITGICIALLVVGIMCVVAYCKTKKQRKKLHDRLRQSLRSERNNMMNIANGPHHPNPPPENVQLVNQYVSKNVISSEHIVEREAETSFSTSHYTSTAHHSTTVTQTPSHSWSNGHTESILSESHSVIVMSSVENSRHSSPTGGPRGRLNGTGGPRECNSFLRHARETPDSYRDSPHSERYVSAMTTPARMSPVDFHTPSSPKSPPSEMSPPVSSMTVSMPSMAVSPFMEEERPLLLVTPPRLREKKFDHHPQQFSSFHHNPAHDSNSLPASPLRIVEDEEYETTQEYEPAQEPVKKLANSRRAKRTKPNGHIANRLEVDSNTSSQSSNSESETEDERVGEDTPFLGIQNPLAASLEATPAFRLADSRTNPAGRFSTQEEIQARLSSVIANQDPIAV
effect of substitution with alanine on affinity for the ErbB-3 or ErbB-4 receptors [2]: two

B4: T188: HRG-β1 variant with T188 mutated to alanine (protein, UniProt Q02297 1-640, looked up, variant T188A)
chain: MSERKEGRGKGKGKKKERGSGKKPESAAGSQSPALPPRLKEMKSQESAAGSKLVLRCETSSEYSSLRFKWFKNGNELNRKNKPQNIKIQKKPGKSELRINKASLADSGEYMCKVISKLGNDSASANITIVESNEIITGMPASTEGAYVSSESPIRISVSTEGANTSSSTSTSTTGTSHLVKCAEKEKAFCVNGGECFMVKDLSNPSRYLCKCQPGFTGARCTENVPMKVQNQEKAEELYQKRVLTITGICIALLVVGIMCVVAYCKTKKQRKKLHDRLRQSLRSERNNMMNIANGPHHPNPPPENVQLVNQYVSKNVISSEHIVEREAETSFSTSHYTSTAHHSTTVTQTPSHSWSNGHTESILSESHSVIVMSSVENSRHSSPTGGPRGRLNGTGGPRECNSFLRHARETPDSYRDSPHSERYVSAMTTPARMSPVDFHTPSSPKSPPSEMSPPVSSMTVSMPSMAVSPFMEEERPLLLVTPPRLREKKFDHHPQQFSSFHHNPAHDSNSLPASPLRIVEDEEYETTQEYEPAQEPVKKLANSRRAKRTKPNGHIANRLEVDSNTSSQSSNSESETEDERVGEDTPFLGIQNPLAASLEATPAFRLADSRTNPAGRFSTQEEIQARLSSVIANQDPIAV
effect of substitution with alanine on affinity for the ErbB-3 or ErbB-4 receptors [2]: two and five

B5: R220: HRG-β1 variant with R220 mutated to alanine (protein)
chain: SHLVKCAEKEKTFCVNGGECFMVKDLSNPSRYLCKCPNEFTGDACQNYVMASFYKHLGIEFMEAEELY
modifications: left off: large carriers; small tags and cut ends
notes: HRG-β1 variant with R220 mutated to alanine
Sol EC50, binding to the ErbB-4 receptor (ErbB-4-Ig): no binding
Sol EC50, binding to the ErbB-3 receptor (ErbB-3-Ig [3]): no binding
